PMC2847587 (Molecular cell, 2010)

B1: FANCA (natural protein, human (endogenous in HeLa), UniProt O15360 1-1455, looked up)
chain: MSDSWVPNSASGQDPGGRRRAWAELLAGRVKREKYNPERAQKLKESAVRLLRSHQDLNALLLEVEGPLCKKLSLSKVIDCDSSEAYANHSSSFIGSALQDQASRLGVPVGILSAGMVASSVGQICTAPAETSHPVLLTVEQRKKLSSLLEFAQYLLAHSMFSRLSFCQELWKIQSSLLLEAVWHLHVQGIVSLQELLESHPDMHAVGSWLFRNLCCLCEQMEASCQHADVARAMLSDFVQMFVLRGFQKNSDLRRTVEPEKMPQVTVDVLQRMLIFALDALAAGVQEESSTHKIVRCWFGVFSGHTLGSVISTDPLKRFFSHTLTQILTHSPVLKASDAVQMQREWSFARTHPLLTSLYRRLFVMLSAEELVGHLQEVLETQEVHWQRVLSFVSALVVCFPEAQQLLEDWVARLMAQAFESCQLDSMVTAFLVVRQAALEGPSAFLSYADWFKASFGSTRGYHGCSKKALVFLFTFLSELVPFESPRYLQVHILHPPLVPGKYRSLLTDYISLAKTRLADLKVSIENMGLYEDLSSAGDITEPHSQALQDVEKAIMVFEHTGNIPVTVMEASIFRRPYYVSHFLPALLTPRVLPKVPDSRVAFIESLKRADKIPPSLYSTYCQACSAAEEKPEDAALGVRAEPNSAEEPLGQLTAALGELRASMTDPSQRDVISAQVAVISERLRAVLGHNEDDSSVEISKIQLSINTPRLEPREHMAVDLLLTSFCQNLMAASSVAPPERQGPWAALFVRTMCGRVLPAVLTRLCQLLRHQGPSLSAPHVLGLAALAVHLGESRSALPEVDVGPPAPGAGLPVPALFDSLLTCRTRDSLFFCLKFCTAAISYSLCKFSSQSRDTLCSCLSPGLIKKFQFLMFRLFSEARQPLSEEDVASLSWRPLHLPSADWQRAALSLWTHRTFREVLKEEDVHLTYQDWLHLELEIQPEADALSDTERQDFHQWAIHEHFLPESSASGGCDGDLQAACTILVNALMDFHQSSRSYDHSENSDLVFGGRTGNEDIISRLQEMVADLELQQDLIVPLGHTPSQEHFLFEIFRRRLQALTSGWSVAASLQRQRELLMYKRILLRLPSSVLCGSSFQAEQPITARCEQFFHLVNSEMRNFCSHGGALTQDITAHFFRGLLNACLRSRDPSLMVDFILAKCQTKCPLILTSALVWWPSLEPVLLCRWRRHCQSPLPRELQKLQEGRQFASDFLSPEAASPAPNPDWLSAAALHFAIQQVREENIRKQLKKLDCEREELLVFLFFFSLMGLLSSHLTSNSTTDLPKAFHVCAAILECLEKRKISWLALFQLTESDLRLGRLLLRVAPDQHTRLLPFAFYSLLSYFHEDAAIREEAFLHVAVDMYLKLVQLFVAGDTSTVSPPAGRSLELKGQGNPVELITKARLFLLQLIPRCPKKSFSHVAELLADRGDCDPEVSAALQSRQQAAPDADLSQEPHLF
B2: FAAP24 (natural protein, human (endogenous in HeLa), UniProt Q9BTP7 1-215, looked up)
chain: MEKNPPDDTGPVHVPLGHIVANEKWRGSQLAQEMQGKIKLIFEDGLTPDFYLSNRCCILYVTEADLVAGNGYRKRLVRVRNSNNLKGIVVVEKTRMSEQYFPALQKFTVLDLGMVLLPVASQMEASCLVIQLVQEQTKEPSKNPLLGKKRALLLSEPSLLRTVQQIPGVGKVKAPLLLQKFPSIQQLSNASIGELEQVVGQAVAQQIHAFFTQPR

Legend:
Experiment in all cases: immunodepletion
[1] = target: MHF2 (FANCM-associated Histone Fold protein 2) (human (endogenous in HeLa), UniProt A8MT69 1-81)
Chain of MHF2 (FANCM-associated Histone Fold protein 2) (A8MT69 whole entry): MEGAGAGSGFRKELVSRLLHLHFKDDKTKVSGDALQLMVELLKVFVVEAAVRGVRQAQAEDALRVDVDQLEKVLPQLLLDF

[2] = target: MHF1 (FANCM-associated Histone Fold protein 1) (human (endogenous in HeLa), UniProt Q8N2Z9-1 1-138)
Chain of MHF1 (FANCM-associated Histone Fold protein 1) (Q8N2Z9 whole entry): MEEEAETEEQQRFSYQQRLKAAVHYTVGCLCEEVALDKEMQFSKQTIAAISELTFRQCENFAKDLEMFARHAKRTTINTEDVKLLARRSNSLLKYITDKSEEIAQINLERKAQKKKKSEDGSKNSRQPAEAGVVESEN

FAAP24 = target: B2
FANCA = target: B1

Binder	percent co-depleted [1]	percent co-depleted [2]	percent co-depleted (FAAP24)	percent co-depleted (FANCA)
B1	< 25%	< 25%	< 25%	–
B2	–	–	–	< 30%
